WO2014065403A1 (dated 2014)

T1: mouse CD40 (mouse, UniProt P27512 20-289)
T1 construct: Stably expressed on CHO cells (pCXN3 vector)
T1 sequence: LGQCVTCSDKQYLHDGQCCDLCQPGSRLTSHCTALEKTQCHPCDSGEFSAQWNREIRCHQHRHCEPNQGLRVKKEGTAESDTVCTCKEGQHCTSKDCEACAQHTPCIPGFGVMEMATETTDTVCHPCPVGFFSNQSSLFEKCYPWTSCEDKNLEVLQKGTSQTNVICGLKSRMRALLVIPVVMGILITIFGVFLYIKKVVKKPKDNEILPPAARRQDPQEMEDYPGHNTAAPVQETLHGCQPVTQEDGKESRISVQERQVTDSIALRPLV

T2: cynomolgus monkey CD40 (cynomolgus monkey, UniProt P25942 21-277 (human entry))
T2 construct: Stably expressed on CHO cells (pCXN3 vector); also called cynomolgus CD40
T2 chain: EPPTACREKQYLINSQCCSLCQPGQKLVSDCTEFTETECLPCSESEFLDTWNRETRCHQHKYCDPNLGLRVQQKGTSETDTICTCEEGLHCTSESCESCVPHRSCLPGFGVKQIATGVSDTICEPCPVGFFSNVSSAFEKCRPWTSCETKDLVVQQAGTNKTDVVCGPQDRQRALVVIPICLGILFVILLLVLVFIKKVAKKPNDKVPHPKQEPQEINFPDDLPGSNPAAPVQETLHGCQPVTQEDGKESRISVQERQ


Legend:
[1] = target: T3, partial length CD40 from CD40 amino acid residue 78 onward (human, UniProt P25942 78-277); experiment: FACS on 293T cells transiently expressing partial length CD40
T3 construct: also called D2B1 (by its position in the series D1, D1B2, D2, D2B1, D3, D4); not shown: VSV-G tag added at the C-terminus

[2] = target: T4, partial length CD40 D2 (expressed from the 62nd amino acid of CD40) (human, UniProt P25942 62-277); experiment: FACS at 1 ug/mL on 293T cells transiently expressing partial length CD40
T4 construct: not shown: VSV-G tag added at the C-terminus

[3] = target: T5, partial length CD40 from CD40 amino acid residue 146 onward (human, UniProt P25942 146-277); experiment: FACS on 293T cells transiently expressing partial length CD40
T5 construct: also called D4 (by its position in the series D1, D1B2, D2, D2B1, D3, D4); not shown: VSV-G tag added at the C-terminus

[4] = target: T6, partial length CD40 D3 (expressed from the 105th amino acid of CD40) (human, UniProt P25942 105-277); experiment: FACS at 1 ug/mL on 293T cells transiently expressing partial length CD40
T6 construct: not shown: VSV-G tag added at the C-terminus

mouse CD40 = target: T1, mouse CD40; experiment: FACS on CHO cells expressing mouse CD40
cynomolgus monkey CD40 = target: T2, cynomolgus monkey CD40; experiment: FACS on CHO cells expressing cynomolgus monkey CD40

Binder | binding result [1] | binding result [2] | binding result [3] | binding result [4] | binding result (mouse CD40) | binding result (cynomolgus monkey CD40)
antibody of SEQ ID NOs: 12 and 37 (antibody, V domains shown, clone name not tied; The text speaks of the mature part of these entries) VH: EVQLQHSGAELVKPGSSVKLSCTASDFNIKDAYMHWVKQRPEQGLEWIGRIDPANGKTKYDPKFQDKATITADTSSNTAYLQLNSLTSEDTAVYYCPRNYYGSRYGYFDVWGAGTTVTVSS VL: QIVLTQSPAILSASPGEKVTITCSASSSVDYMFWFQQKPGTSPKLWIYTTSNLASGVPTRFSGSGSGTSYSLTISRMEAEDAATYYCHQRSSYPLTFGAGTKLELK | no binding (tested: 1 μg/mL) | binds |  |  |  | 
antibody of SEQ ID NOs: 13 and 38 (antibody, V domains shown, clone name not tied; The text speaks of the mature part of these entries) VH: EVQLQQSGAELVKPGASVKLSCTASGFNIKDSYIHWVKQRPEQGLEWIGRIDPANGNTKYDPKFQGKATITSDTSSSTAYLQLTSLTSEDTAVYYCPRNYYGSTYGYFDVWGAGTTVTVSS VL: QIVLTQSPAIMSASPGEKVTITCSASSSVSNMHWFQQKAGTSPKLWIYRTSNLASGVPARFSGSGSGTSYSLTISRMEAEDAATYYCQQGSSYPLTFGAGTKLELK | no binding (tested: 1 μg/mL) | binds |  |  |  | 
antibody of SEQ ID NOs: 8 and 33 (antibody, V domains shown, clone name not tied; The text speaks of the mature part of these entries) VH: EVQLQQSGPELVKPGASVKMSCKASGYTFTNYVMHWVKQKPGQGLEWIGYVNPYNDDTNYNERFKGKATLTSDKSSSTAYMELSSLTSEDSAVYYCARELTGTYWGQGTLVTVSA VL: DIVMTQAAPSVPVTPGESVSISCRSSKSLLHSNGNTYLYWFLQRPGQSPQLLISRISNLASGVPDRFSGSGSGTAFTLRISRVEAEDVGVYYCMQHVEYPFTFGSGTKLEIK |  |  | no binding (tested: 1 μg/mL) | binds |  | 
antibody of SEQ ID NOs: 16 and 41 (antibody, V domains shown, clone name not tied; The text speaks of the mature part of these entries) VH: EVQLQQSGPELVKPGASVKMSCKASGYTFINYVIHWVKQKPGQGLEWIGYINPYNDDSNYNEKFKGKATLTSDKSSSTAYMELRSLTSEDSAIYYCARDLIGSYWGQGTTLTVSS VL: DIVMTQAAPSVIVTPGESVSISCRSSKSLLHSNGNTYFYWFLQRPGQSPQLLISRISNLASGVPDRFSGSGSGTAFTLRISRVEAEDVGIYYCMQHLEYPFTFGAGTKVELK |  |  | no binding (tested: 1 μg/mL) | binds |  | 
antibody of SEQ ID NOs: 15 and 40 (antibody, V domains shown, clone name not tied; The text speaks of the mature part of these entries) VH: QVQLQQSGAELARPGASLKMSCKASGYTFTSYTIHWIKQRPGQGLEWIGYINPSSGYTNDNQKFKDKATLTADKSSTTAYMQLSSLTSEDSAVYYCARLGRPFDYWGQGTTLTVSS VL: EIVLTQSPALMAASPGEKVTITCSVSSSISSSNLHWYQQKSETSPKPWIYGTSNLASGVPVRFSGSGSGTSYSLTISSMEAEDAATYYCQQWSTYPLTFGSGTKLEIK |  |  | no binding (tested: 1 μg/mL) | binds |  | 
antibody of SEQ ID NOs: 28 and 53 (antibody, V domains shown, clone name not tied; The text speaks of the mature part of these entries) VH: EVQLQQSGAELVKPGASVKLSCTGSGFNIKDTYMHWVKQRPEQGLEWIGRIDPANGNTKFDPKFQGKATITADTSTNTAYLQVSSLTSEDTAVYYCVRYGYDGYFDYWGQGTTLTVSS VL: QIVLTQSPAIMSASPGEKVTMTCSVSSSISYMYWYQQKPGTSPKRWIYDTSKLASGVPARFSGSGSGTSYSLTISSMEAEDAATYYCHQRSSYPLTFGAGTKLELK | no binding (tested: 1 μg/mL) | binds |  |  |  | 
mouse antibody PPAT-071-04 (antibody, V domains shown, Mouse monoclonal IgG from ascites; also called hybridoma NITE BP-01435) VH: EVQLQQSGPELVKPGASMKISCKASGYSFADYTMNWVKQSHGKKLEWIGLINPYNGGTSYNQKFKDKATLTVDKSSSTAYMELLSLTTEDSAVYYCAEGVNNFADWGQGTTLTVSG VL: DIVLTQSPTSLAVFLGQRATISCRASKSVSTSGYSYMHWYQQKPGQSPKPLIYLASNLESGVPARFSGSGSGTDFTLNIHPVEEEDAATYYCQHSRELPRTFGGGTKLEIK |  |  | no binding (tested: 1 μg/mL) | binds | no binding | binds
